The assay addresses T1, extracellular domain of human BMP receptor type IA (BMPR-IAEC), wild type (human, UniProt P36894).
T1 construct: numbers count on: the mature protein; In the crystal only Pro34-Val118 were traced; also called BMPR-IA WT; BMPR-IA ectodomain; source: expressed as thioredoxin-fusion protein as described [16], purified
In words: SPR; Biacore 2000, room temperature; biotinylated BMP-2 and Fabs immobilised on a streptavidin-coated CM5 chip; wildtype or mutant BMPR-IAEC as analyte at 1000, 500, 250, 125, 62.5 nM; HBS500 (10 mM HEPES, 500 mM NaCl pH 7.4, 3.4 mM EDTA, 0.005% surfactant P20), 10 µl/min; 1:1 Langmuir model; apparent KD from equilibrium binding and/or kon and koff. The following applies: both partners purified. For orientation: SPR reads the build-up and loss of mass on a sensor chip optically.

T1 sequence (P36894 24-152): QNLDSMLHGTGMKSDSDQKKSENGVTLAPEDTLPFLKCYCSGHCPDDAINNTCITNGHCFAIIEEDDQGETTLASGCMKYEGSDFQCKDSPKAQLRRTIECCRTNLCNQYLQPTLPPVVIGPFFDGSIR

B1: Fab AbD1556 (Fab, V domains shown)
VH: QVQLVESGGGLVQPGGSLRLSCAASGFTFSNYTLNWVRQAPGKGLEWVSYTSSSGSLTGYADSVKGRFTISRDNSKNTLYLQMNSLRAEDTAVYYCARERWHVRGYFDHWGQGTLVTVSS
VL: DIELTQPPSVSVAPGQTARISCSGDSLGSKYVIWYQQKPGQAPVLVIYDDSNRPSGIPERFSGSNSGNTATLTISGTQAEDEADYYCSTFTMSGNGTVFGGGTKLTVL
notes: heavy chain of Fab AbD1556 (Gln1 to Phe224, then the Strep-Tag); light chain of Fab AbD1556 (Asp1 to Ala213); Human Fab of the HuCal library; Not biotinylated in the crystal; some residues of PDB 3NH7 are not modelled; source: obtained from AbD-Serotech (Martinsried), recombinant Fab selected from the HuCal phage library
On to B1, for which the Kd was 20 nM, the koff was determined as 0.0017 s⁻¹ and the association rate constant (kon) was determined as 88000 M⁻¹ s⁻¹.

In general, koff refers to the first-order rate constant of dissociation. As usually defined, the kon is a measure of how fast the partners come together.

(Values after publication PMC2946932 (PLoS ONE, 2010).)
